The target in the experiment is EGFR (human) (UniProt P00533). Briefly: cell-based or functional assay.

Regarding cetuximab-saporin (antibody), the cell killing (MTS) IC50, titrated alone, MDA-MB-468 cells (EGFR++) is 0.3 nM.

Source of the values: patent US20230248844A1, “C[…] ADC OR AN AOC COMPRISING A VHH, AND A SAPONIN OR A LIGAND-SAPONIN CONJUGATE” (SAPREME TECHNOLOGIES B.V., priority 2020, published 2023).
